Assays:
Experiment in all cases: SEC; 3x molar excess of Rab mixed with C9orf72, overnight on ice with 20 mM EDTA; gel filtration in 20 mM Tris pH 8.0, 300 mM NaCl, 2 mM DTT, 20 mM EDTA (Superdex75 in the methods, Superdex 200 10/30 in the legend); 21 uM C9orf72 and 48 uM Rab per run; fractions checked by SDS-PAGE and western blot
[1] = biological target: the molecule itself
Rab11A = biological target: T1, Rab11A (UniProt P62491 1-216); settings: both partners purified
T1 construct: Rab11A, amplified from its cDNA clone and put into pGEX-6p-1 (BamHI/XhoI); about 25 kDa after tag cleavage; source: E. coli BL21CodonPlus(DE3)RIPL, purified (GST Sepharose 4B, PreScission cleavage, second GST Sepharose pass); not shown: GST, N-terminal, cleaved
T1 sequence (looked up): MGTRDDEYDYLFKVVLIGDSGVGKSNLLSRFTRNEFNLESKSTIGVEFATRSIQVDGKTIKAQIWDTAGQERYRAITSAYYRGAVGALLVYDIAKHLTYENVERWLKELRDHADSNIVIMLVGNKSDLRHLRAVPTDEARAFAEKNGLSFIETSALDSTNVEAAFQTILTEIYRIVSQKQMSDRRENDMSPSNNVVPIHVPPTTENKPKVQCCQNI

Rab5A = biological target: T2, Rab5A (UniProt P20339 1-215); settings: both partners purified
T2 construct: Rab5A, amplified from its cDNA clone and put into pGEX-6p-1 (BamHI/XhoI); about 25 kDa after tag cleavage; source: E. coli BL21CodonPlus(DE3)RIPL, purified (GST Sepharose 4B, PreScission cleavage, second GST Sepharose pass); not shown: GST, N-terminal, cleaved
T2 sequence (looked up): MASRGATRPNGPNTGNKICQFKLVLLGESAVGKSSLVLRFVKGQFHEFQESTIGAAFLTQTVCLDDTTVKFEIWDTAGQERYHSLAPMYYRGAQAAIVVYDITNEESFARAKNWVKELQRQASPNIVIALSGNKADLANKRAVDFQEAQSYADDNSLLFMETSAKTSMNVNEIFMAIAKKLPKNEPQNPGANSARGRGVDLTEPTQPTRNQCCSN

B1: C9orf72 (N-terminal His6, pOPINF-C9orf72) (natural protein, human, UniProt Q96LT7 1-481, looked up)
chain: MSTLCPPPSPAVAKTEIALSGKSPLLAATFAYWDNILGPRVRHIWAPKTEQVLLSDGEITFLANHTLNGEILRNAESGAIDVKFFVLSEKGVIIVSLIFDGNWNGDRSTYGLSIILPQTELSFYLPLHRVCVDRLTHIIRKGRIWMHKERQENVQKIILEGTERMEDQGQSIIPMLTGEVIPVMELLSSMKSHSVPEEIDIADTVLNDDDIGDSCHEGFLLNAISSHLQTCGCSVVVGSSAEKVNKIVRTLCLFLTPAERKCSRLCEAESSFKYESGLFVQGLLKDSTGSFVLPFRQVMYAPYPTTHIDVDVNTVKQMPPCHEHIYNQRRYMRSELTAFWRATSEEDMAQDTIIYTDESFTPDLNIFQDVLHRDTLVKAFLDQVFQLKPGLSLRSTFLAQFLLVLHRKALTLIKYIEDDTQKGKKPFKSLRNLKIDLDLTAEGDLNIIMALAEKIKPGLHSFIFGRPFYTSVQERDVLMTF
notes: the homology model counts residues up to 481; No tag cleavage is described; also called His6-C9orf72; recombinant C9orf72; source: Sf9, baculovirus, purified (HisTrap HP, Superdex200 size-exclusion chromatography); not shown: His6, N-terminal, kept
For B1, the binding result [1] was “binds”, the “stoichiometry N” value (Rab11A) was 1 and the “stoichiometry N” value (Rab5A) was 1.

Source: PMC6195791, “C9orf72, a protein associated with amyotrophic lateral sclerosis (ALS) is a guanine nucleotide exchange factor” (PeerJ, 2018)
